Measurements as given in patent publication US20160046724A1 (Novartis, published 2016).

T1: BCMA (recombinant, form not given) (UniProt Q02223 1-54, limits assumed)
T1 construct: also called BCMA substrate; Bio-BCMA
T1 sequence (looked up): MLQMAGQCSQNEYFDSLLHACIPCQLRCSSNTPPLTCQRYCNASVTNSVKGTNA

B1: BCMA-4NP (sample in the affinity and competition assays) (scFv)
scFv: QVQLVQSGAEVKKPGSSVKVSCKASGGTFSNYWMHWVRQAPGQGLEWMGATYRGHSDTYYNQKFKGRVTITADKSTSTAYMELSSLRSEDTAVYYCARGAIYNGYDVLDNWGQGTLVTVSSGGGGSGGGGSGGGGSGGGGSDIQMTQSPSSLSASVGDRVTITCSASQDISNYLNWYQQKPGKAPKLLIYYTSNLHSGVPSRFSGSGSGTDFTLTISSLQPEDFATYYCQQYRKLPWTFGQGTKLEIKR
notes: also called BCMA-4NP control sample
B2: BCMA-4NP tool CAR (other, not shown: a dimerising Fc or GST)
chain: B1 scFv
notes: Tool CAR with humanized murine anti-BCMA scFv (VH and VL from WO2012/163805); also called 126021
B3: BCMA-15 CAR (other)
chain: EVQLVESGGGLVQPGGSLRLSCAVSGFALSNHGMSWVRRAPGKGLEWVSGIVYSGSTYYAASVKGRFTISRDNSRNTLYLQMNSLRPEDTAIYYCSAHGGESDVWGQGTTVTVSSASGGGGSGGRASGGGGSEIVLTQSPGTLSLSPGERATLSCRASQSIGSSSLAWYQQKPGQAPRLLMYGASSRASGIPDRFSGSGSGTDFTLTISRLEPEDFAVYYCQQYAGSPPFTFGQGTKVEIKTTTPAPRPPTPAPTIASQPLSLRPEACRPAAGGAVHTRGLDFACDIYIWAPLAGTCGVLLLSLVITLYCKRGRKKLLYIFKQPFMRPVQTTQEEDGCSCRFPEEEEGGCELRVKFSRSADAPAYKQGQNQLYNELNLGRREEYDVLDKRRGRDPEMGGKPRRKNPQEGLYNELQKDKMAEAYSEIGMKGERRRGKGHDGLYQGLSTATKDTYDALHMQALPPR
notes: also called 139114 Full CAR; PY43-48LB
B4: BCMA-Fc antigen (Fc fusion)
chain: AGQCSQNEYFDSLLHACIPCQLRCSSNTPPLTCQRYCNASVTNSVKG
notes: Bought reagent; also called BCMA fc fusion protein; recombinant BCMA-Fc; not shown: Fc region

Columns and labels:
[1] = target: T1, BCMA (recombinant, form not given); assay: affinity assay, 1:1 binding fit; instrument and sample format not stated
BCMA-Fc antigen = target: B4; assay: flow cytometry of CAR-transduced JNL cells stained with BCMA-Fc antigen
Method: Jurkat-NFAT-luciferase (JNL) cells transduced with BCMA CAR constructs were evaluated for activation in response to BCMA-expressing target cell lines. Small-scale viral supernatant samples were generated in HEK293T cells for transduction of JNL cells. On Day 3 following transduction, BCMA CAR-transduced JNL cells were incubated with target cells at an effector-to-target (E:T) ratio of 6:1. Target cell lines were: K562-BCMA (engineered to stably express BCMA), K562 (parental line), and BCMA positive multiple myeloma cell lines, NCI-H929 and RPMI 8226. JNL activation was measured using Bright-Glo substrate (Promega) on Day 4. CAR expression on transduced JNL was assessed on Day 7 with BCMA-Fc antigen and Biotin-Protein L reagent (Table 7).

BCMA-10 CAR = target: T2, BCMA-10 CAR; assay: CAR-expressing T cells incubated with recombinant BCMA-Fc; staining of CAR+ cells
T2 construct: also called 139109 Full CAR; EG63-98LB

B1 showed a Kd [1] of 0.1 nM, a koff [1] of 0.000172 s⁻¹ and a kon [1] of 1.58e+06 M⁻¹ s⁻¹.

For B2, the “% CAR+ (BCMA-Fc detection)” value (BCMA-Fc antigen) was 28.3%.

B3 was tested, and the “% CAR+ (BCMA-Fc detection)” value (BCMA-Fc antigen) was 36.9%.

B4: binds (BCMA-10 CAR).
